PMC3436176

Target: III-30A (human)
Test: ELISA

Chain of GPVIex (recombinant extracellular domain of GPVI) (Q9HCN6 21-214): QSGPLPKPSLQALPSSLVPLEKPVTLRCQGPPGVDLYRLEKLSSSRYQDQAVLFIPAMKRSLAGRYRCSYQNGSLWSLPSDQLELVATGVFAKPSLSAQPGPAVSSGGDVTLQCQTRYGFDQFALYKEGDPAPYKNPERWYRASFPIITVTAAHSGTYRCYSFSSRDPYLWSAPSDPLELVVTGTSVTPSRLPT

**Q.** “GPVIex (recombinant extracellular domain of GPVI) (from UniProt Q9HCN6 21-214) (domain or fragment)” was tested. Which Kd did it give?
**A.** 10.2 µM
